Test results as given in patent publication US20180142030A1 (Bristol-Myers Squibb, published 2018).
Substitutions are numbered along the chain they refer to. Numbers in names are those of the source.

T1: FcγRIIa-H131 (human, UniProt P12318 34-218, limits assumed)
T1 construct: Construct not described; also called hCD32a/FcγRIIa-H131
T1 sequence (looked up): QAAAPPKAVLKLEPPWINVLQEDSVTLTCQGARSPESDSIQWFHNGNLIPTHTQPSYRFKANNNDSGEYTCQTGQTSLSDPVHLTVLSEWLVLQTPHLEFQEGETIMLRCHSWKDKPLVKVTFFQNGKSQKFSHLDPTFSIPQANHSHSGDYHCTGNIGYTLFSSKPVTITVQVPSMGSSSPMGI

T2: FcγRIIa-R131 (human, UniProt P12318 34-218, limits assumed)
T2 construct: Construct not described
T2 sequence (looked up): T1 sequence (looked up) with H134R

T3: FcγRIIb (human, UniProt P31994 43-217, limits assumed)
T3 construct: Construct not described; also called hCD32b/FcγRIIb
T3 sequence (looked up): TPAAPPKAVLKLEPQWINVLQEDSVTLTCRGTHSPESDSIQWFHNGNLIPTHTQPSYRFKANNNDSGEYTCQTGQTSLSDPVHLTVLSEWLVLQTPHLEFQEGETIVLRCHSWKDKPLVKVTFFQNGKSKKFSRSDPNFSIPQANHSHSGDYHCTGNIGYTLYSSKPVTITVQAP

B1: 5F11 (parental) (antibody, V domains shown)
VH: QVQLQQSAAELARPGASVKMSCKASGYTFTDLSMHWIKQRPGQGLEWIGYITPSSGYTAYNQKFKGKTTLTADKSSSTAYMQLSSLTSEDSAVYYCARLILQRGAYWGQGTLVTVSA
VL: DIVLTQSPASLAVSLGQRATISCRASKNVDSYGNSFMHWYQQKPGQPPKLLIYRASNLESGIPARFGGSGSGTDFTLTINPVEADDVATYYCQQSNEDPLTFGAGTKLELK
notes: Mouse variable domains; also called 1802.3717.5F11.A11.E7; mAb 5F11
B2: 5F11-45 V9 (antibody, human IgG1, kappa)
heavy: QVQLVQSGAEVKKPGSSVKVSCKASGYTFTDLSMHWVRQAPGQGLEWMGYITPSSGYTAYNQKFKGKTTLTADKSTSTAYMELSSLRSEDTAVYYCARLILQRGAYWGQGTLVTVSSASTKGPSVFPLAPSSKSTSGGTAALGCLVKDYFPEPVTVSWNSGALTSGVHTFPAVLQSSGLYSLSSVVTVPSSSLGTQTYICNVNHKPSNTKVDKRVEPKSCDKTHTCPPCPAPELLGDDSVFLFPPKPKDTLMISRTPEVTCVVVDVSHEDGEVKFNWYVDGVEVHNAKTKPREEQYNSTYRVVSVLTVLHQDWLNGKEYKCKVSNKALPRPIEKTISKAKGQPREPQVYTLPPSREEMTKNQVSLTCLVKGFYPSDIAVEWESNGQPENNYKTTPPVLDSDGSFFLYSKLTVDKSRWQQGNVFSCSVMHEALHNHYTQKSLSLSPG
light: DIVLTQSPDSLAVSLGERATINCRASKNVDSYGNSFMHWYQQKPGQPPKLLIYRASNLESGVPDRFSGSGSGTDFTLTISSLQAEDVAVYYCQQSNEDPLTFGQGTKLEIKRTVAAPSVFIFPPSDEQLKSGTASVVCLLNNFYPREAKVQWKVDNALQSGNSQESVTEQDSKDSTYSLSSTLTLSKADYEKHKVYACEVTHQGLSSPVTKSFNRGEC
B3: 5F11-45 V4 (antibody, human IgG1, kappa)
heavy: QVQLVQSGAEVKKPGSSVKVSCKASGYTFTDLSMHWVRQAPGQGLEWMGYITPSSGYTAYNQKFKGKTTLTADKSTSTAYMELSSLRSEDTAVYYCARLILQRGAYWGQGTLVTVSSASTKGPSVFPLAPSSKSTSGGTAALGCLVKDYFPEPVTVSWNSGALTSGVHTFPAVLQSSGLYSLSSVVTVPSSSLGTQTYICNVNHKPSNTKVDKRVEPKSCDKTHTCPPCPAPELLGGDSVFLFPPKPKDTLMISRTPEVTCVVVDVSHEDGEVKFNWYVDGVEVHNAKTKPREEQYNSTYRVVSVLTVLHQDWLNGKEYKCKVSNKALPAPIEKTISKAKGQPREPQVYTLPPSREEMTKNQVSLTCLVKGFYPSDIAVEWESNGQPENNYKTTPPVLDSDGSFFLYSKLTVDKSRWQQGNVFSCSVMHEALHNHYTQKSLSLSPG
light: B2 light
B4: 5F11-45-V9-DS-sup (antibody, human IgG1, kappa)
heavy chain: B2 heavy with D270S
light chain: B2 light
notes: Tested as supernatant of antibody-producing cells; also called 5F11-45 V9 D270S
B5: 5F11-45-V9-DQ-sup (antibody, human IgG1, kappa)
heavy chain: B2 heavy with D270Q
light chain: B2 light
notes: Tested as supernatant of antibody-producing cells; also called 5F11-45 V9 D270Q
B6: 5F11-45-V9-DA-sup (antibody, human IgG1, kappa)
heavy chain: B2 heavy with D270A
light chain: B2 light
notes: Tested as supernatant of antibody-producing cells; also called 5F11-45 V9 D270A
B7: 5F11-45 V9 D270E (antibody, human IgG1, kappa)
heavy: B2 heavy with D270E
light: B2 light
B8: 12D6-24 V9 D270E (antibody, human IgG1, kappa)
heavy: QVQLVQSGAEVKKPGASVKVSCKASGYTFTGYNMNWVRQAPGQGLEWMGNIDPYYGNTNYNQKFKGRVTMTTDTSTSTAYMELRSLRSDDTAVYYCARLGLQLYALDYWGQGTTVTVSSASTKGPSVFPLAPSSKSTSGGTAALGCLVKDYFPEPVTVSWNSGALTSGVHTFPAVLQSSGLYSLSSVVTVPSSSLGTQTYICNVNHKPSNTKVDKRVEPKSCDKTHTCPPCPAPELLGDDSVFLFPPKPKDTLMISRTPEVTCVVVDVSHEEGEVKFNWYVDGVEVHNAKTKPREEQYNSTYRVVSVLTVLHQDWLNGKEYKCKVSNKALPRPIEKTISKAKGQPREPQVYTLPPSREEMTKNQVSLTCLVKGFYPSDIAVEWESNGQPENNYKTTPPVLDSDGSFFLYSKLTVDKSRWQQGNVFSCSVMHEALHNHYTQKSLSLSPG
light: DIVMTQTPLSLPVTPGEPASISCRSSQSLVHSNANTYLHWYLQKPGQSPQLLIYKLTNRFFGVPDRFSGSGSGTDFTLKISRVEAEDVGVYYCSQSIHVPWTFGGGTKVEIKRTVAAPSVFIFPPSDEQLKSGTASVVCLLNNFYPREAKVQWKVDNALQSGNSQESVTEQDSKDSTYSLSSTLTLSKADYEKHKVYACEVTHQGLSSPVTKSFNRGEC
B9: 12D6-24-V9-DA-sup (antibody)
heavy: B8 heavy with E272A
light: B8 light
notes: Tested as supernatant of antibody-producing cells; also called 12D6-24 V9 D270A; copies: 2 + 2
B10: 12D6-24-V9-DQ-sup (antibody)
heavy: B8 heavy with E272Q
light: B8 light
notes: Tested as supernatant of antibody-producing cells; also called 12D6-24 V9 D270Q; copies: 2 + 2
B11: 12D6-24-V9-DS-sup (antibody)
heavy: B8 heavy with E272S
light: B8 light
notes: Tested as supernatant of antibody-producing cells; also called 12D6-24 V9 D270S; copies: 2 + 2
B12: 12D6-24 V4 (antibody, human IgG1, kappa)
heavy: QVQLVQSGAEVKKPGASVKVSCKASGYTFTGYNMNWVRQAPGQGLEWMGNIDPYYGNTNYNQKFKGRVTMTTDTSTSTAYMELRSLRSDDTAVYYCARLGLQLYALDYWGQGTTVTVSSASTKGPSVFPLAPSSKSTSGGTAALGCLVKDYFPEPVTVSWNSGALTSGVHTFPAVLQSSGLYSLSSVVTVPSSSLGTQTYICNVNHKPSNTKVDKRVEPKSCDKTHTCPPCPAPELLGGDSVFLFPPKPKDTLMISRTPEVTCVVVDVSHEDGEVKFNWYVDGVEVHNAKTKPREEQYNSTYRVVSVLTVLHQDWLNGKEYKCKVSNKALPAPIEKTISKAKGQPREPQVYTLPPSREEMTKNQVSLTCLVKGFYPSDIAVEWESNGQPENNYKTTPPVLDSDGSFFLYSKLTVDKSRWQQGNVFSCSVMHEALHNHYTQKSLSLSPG
light: B8 light

Molecular target: T4, recombinant human CD40 monomer (human, UniProt P25942 21-193)
T4 construct: also called huCD40-monomer; soluble human CD40
T4 sequence (P25942 21-193 limits assumed): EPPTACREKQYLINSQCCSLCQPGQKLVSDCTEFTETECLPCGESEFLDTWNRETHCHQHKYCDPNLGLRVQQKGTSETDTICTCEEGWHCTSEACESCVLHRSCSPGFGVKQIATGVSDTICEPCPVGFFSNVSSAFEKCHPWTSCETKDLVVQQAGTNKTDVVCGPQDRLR
Test: BLI (Octet RED); run in parallel with 5F11-45

| Kd [nM] | Binder |
| --- | --- |
| 8.2 | B1 |

Molecular target: T1, FcγRIIa-H131
Test: BLI (ForteBio Octet), %Rmax at 10 µM hCD32a/FcγRIIa-H131
Procedure: (§1) See Example 8. Antibody names including “-sup” represent supernatants from antibody producing cells, whereas others are purified antibodies. Data are presented as percentages of a maximum receptor binding value for each combination of antibody and receptor, as measured in a ForteBio Octet system. See, e.g., Example 3. Each cluster of three bars represents, from left to right, binding to hCD32a/FcγRIIa-H131 (10 μM) (hatched bars), […] (10 μM) (black bars), and hCD32b/FcγRIIb (1 μM) (white bars).
(§2) Supernatants were obtained from cells expressing these antibodies and assayed for binding to hCD32/FcγRII. Selected purified antibodies without mutations at position 270 were used as controls.

| binding result | Binder |
| --- | --- |
| binds | B2 |
| binds | B3 |
| binds | B4 |
| binds | B5 |
| binds | B6 |
| binds | B7 |
| binds | B8 |
| binds | B9 |
| binds | B10 |
| binds | B11 |

Molecular target: T2, FcγRIIa-R131
Test: BLI (ForteBio Octet), %Rmax at 10 µM FcγRIIa-R131 (CD32a-R131 on the sheet)
Procedure: as §1, §2

| binding result | Binder |
| --- | --- |
| binds | B2 |
| binds | B3 |
| binds | B4 |
| binds | B5 |
| binds | B6 |
| binds | B7 |
| binds | B12 |
| binds | B8 |
| binds | B9 |
| binds | B10 |
| binds | B11 |

Molecular target: T1, FcγRIIa-H131
Test: BLI (ForteBio Octet), % of maximum receptor binding (%Rmax) at 10 µM hCD32a/FcγRIIa-H131
Procedure: as §1, §2

| binding result | Binder |
| --- | --- |
| binds | B12 |

Molecular target: T4, recombinant human CD40 monomer
Test: BLI (Octet RED); antibody supernatant captured on protein A sensors, huCD40-monomer in solution
Excerpt: The closest matching human germline region sequence was selected for each mouse variable domain, and these human framework regions were used to replace murine frameworks in the “CDR graft” versions of the antibodies. Additional amino acid substitutions, such as framework back-mutations, were then made as necessary to restore the binding affinity of the humanized antibody. Further amino acid substitutions were made to eliminate sequence liabilities. The sequence relationships between the various forms of the antibodies of the present invention are provided at Table 6. The binding of various agonistic anti-huCD40 antibodies to soluble human CD40 was determined by Biolayer Interferometry (BLI) analysis using a Fortebio Octet RED (Rapid system—Extended Detection) label-free interaction analysis instrument. All studies were performed in 10 mM NaₓPO₄, 130 mM NaCl, 0.05% Surfactant P20 (pH 7.1) at 25° C. Briefly, anti-huCD40 antibody supernatants (diluted to 10 μg/ml or captured undiluted if supernatant concentration was less than 10 μg/ml) were captured on protein A coated biosensors (Pall Fortebio #18-5010) using a loading time of 90 s and shake speed of 1000 rpm. Supernatants were first screened for binding to 1 μM recombinant human CD40 monomer (huCD40-monomer) using 180 s association and dissociation times, at 1000 rpm, with two 15 s conditioning steps using 10 mM glycine pH 1.5 in between binding cycles.

| Kd [nM] | Binder |
| --- | --- |
| 4.7 | B1 |

Molecular target: T3, FcγRIIb
Test: BLI (ForteBio Octet), %Rmax at 1 µM hCD32b/FcγRIIb
Procedure: as §1, §2

| binding result | Binder |
| --- | --- |
| binds | B2 |
| binds | B3 |
| binds | B4 |
| binds | B5 |
| binds | B6 |
| binds | B7 |
| binds | B12 |
| binds | B8 |
| binds | B9 |
| binds | B10 |
| binds | B11 |
